Results as given in IntAct's records for PubMed 24508339.

B1: Mitochondrial dynamics protein MID51 (Mus musculus), Q8BGV8 (parent)
chain: MAGAGERKGKKDDNGIGTAIDFVLSNARLVLGVGGAAMLGIATLAVKRMYDRAISAPTSPTRLSHSGKRSWEEPNWMGSPRLLNKDMKAGLSRSLQTLPTDSSAFDTDTFCPPRPKPLARRGQVDLKKSRLRMSLQEKLLSYYRNRAAIPAGEQARAKQAAVDICAELRSFLRAKLPDMPLRDMYLSGSLYDDLQVVTADHIQLIVPLVLEQNLWSCIPGEDTIMNVPGFFLVRRENPEYFPRGSSYWDRCVVGGYLSPKTVADTFEKVVAGSINWPAIGSLLDYVIRPAPPPEALTLEVQYEKDKHLVIDFLPSVTLGDTVLVARPHRLAQYDNLWRLSLRPAETARLRALDQADSGCRSLCLKILKAICKSTPALGHLTASQLTNVILHLAQEEADWSPDMLADRFLQALRGLISYLEAGVLPSALNPKVNLFAELTPQEIDELGYTLYCSLSEPEVLLQT

Variants of: B1
Conditions: with Dnm1l

effect of a mutation on the interaction	Variant
disrupting interaction strength	R234A;R235A;N237A
decreasing interaction strength	E239A;Y240A;R243A
disrupting interaction strength	V253E;G254E;G255E

Variants of: B1
Conditions: with Dnm1l
Remark: another data set of the same source

effect of a mutation on the interaction	Variant
disrupting interaction strength	E239A;Y240A;R243A
